Test results reported in PMC6393309 (Nucleic Acids Research, 2019).
Numbering of substitutions follows the chain as printed. Names may count otherwise. Read-outs that look alike come from different tables or passages of the source.

B1: F94E λexo: λ Exo variant (protein)
chain: MTPDIILQRTGIDVRAVEQGDDAWHKLRLGVITASEVHNVIAKPRSGKKWPDMKMSYFHTLLAEVCTGVAPEVNAKALAWGKQYENDARTLFEETSGVNVTESPIIYRDESMRTACSPDGLCSDGNGLELKCPFTSRDFMKFRLGGFEAIKSAYMAQVQYSMWVTRKNAWYFANYDPRMKREGLHYVVIERDEKYMASFDEIVPEFIEKMDEALAEIGFVFGEQWR
modifications: left off: His6, N-terminal, kept
B2: F94A λexo (protein)
chain: B1 chain with E94A
modifications: left off: His6, N-terminal, kept
B3: L91A λexo (protein)
chain: B1 chain with L91A, E94F
modifications: left off: His6, N-terminal, kept
B4: D87A λexo (protein)
chain: B1 chain with D87A, E94F
modifications: left off: His6, N-terminal, kept
B5: L91D λexo (protein)
chain: B1 chain with L91D, E94F
modifications: left off: His6, N-terminal, kept
B6: F249A Redβ: Redβ variant (protein)
chain: MSTALATLAGKLAERVGMDSVDPQELITTLRQTAFKGDASDAQFIALLIVANQYGLNPWTKEIYAFPDKQNGIVPVVGVDGWSRIINENQQFDGMDFEQDNESCTCRIYRKDRNHPICVTEWMDECRREPFKTREGREITGPWQSHPKRMLRHKAMIQCARLAFGFAGIYDKDEAERIVENTAYTAERQPERDITPVNDETMQEINTLLIALDKTWDDDLLPLCSQIFRRDIRASSELTQAEAVKALGALKQKAAEQKVAA
B7: K132A Redβ: Redβ variant, non-interfacial residue Lys-132 of the NTD, control (protein)
chain: B6 chain with K132A, A249F
B8: L223A Redβ: Redβ variant (protein)
chain: B6 chain with L223A, A249F
B9: F249D Redβ (protein)
chain: B6 chain with A249D
B10: E256A Redβ: Redβ variant (protein)
chain: B6 chain with A249F, E256A
B11: R229A Redβ: Redβ variant (protein)
chain: B6 chain with R229A, A249F
B12: Q252A Redβ: Redβ variant (protein)
chain: B6 chain with A249F, Q252A
B13: Q226A Redβ: Redβ variant (protein)
chain: B6 chain with Q226A, A249F
B14: Q240A (protein, UniProt P03698 1-261, looked up, variant Q240A)
Recombination protein bet: B6 chain with Q240A, A249F
B15: K253A Redβ (protein)
chain: B6 chain with A249F, K253A
B16: L223D Redβ: Redβ variant (protein)
chain: B6 chain with L223D, A249F
B17: NTD: N-terminal domain of Redβ, residues 1–177 (protein)
chain: MSTALATLAGKLAERVGMDSVDPQELITTLRQTAFKGDASDAQFIALLIVANQYGLNPWTKEIYAFPDKQNGIVPVVGVDGWSRIINENQQFDGMDFEQDNESCTCRIYRKDRNHPICVTEWMDECRREPFKTREGREITGPWQSHPKRMLRHKAMIQCARLAFGFAGIYDKDEAER

Assays:
GB2005 E. coli cells [1] = test: ssDNA recombination assay; type: cell-based; conditions: % of WT colonies per 10^8 viable cells
GB2005 E. coli cells [2] = test: dsDNA recombination assay; type: cell-based; conditions: % of WT colonies per 10^8 viable cells
[3] = individual CTD mutations; cited from earlier work
λ Exo = conditions: cited from earlier work

Row | Molecule | SS (%): ssDNA recombination compared to WT (GB2005 E. coli cells [1]) [%] | DS (%): dsDNA recombination compared to WT (GB2005 E. coli cells [2]) [%] | other results
1 | B1 | 177 | 0.68 | DS (%): dsDNA recombination compared to WT (GB2005 E. coli cells [2]; listed as F94E): 0.6–3%
2 | B2 | 183 | 1.6 | –
3 | B3 | 103 | 0.63 | –
4 | B4 | 179 | 55 | DS (%): dsDNA recombination compared to WT (GB2005 E. coli cells [2]; listed as D87A): 55–106%
5 | B5 | 110 | 3.1 | –
6 | B6 | 0.73 | 0.21 | DS (%): dsDNA recombination compared to WT (GB2005 E. coli cells [2]; listed as F249A): 0–0.7%
7 | B7 | 20 | 19 | –
8 | B8 | 3.5 | 0.72 | DS (%): dsDNA recombination compared to WT (GB2005 E. coli cells [2]; listed as L223A): 0–0.7%
9 | B9 | 0.41 | 0 | –
10 | B10 | 55 | 69 | dsDNA relative to ssDNA recombination [3]: decreased dsDNA more than ssDNA recombination; SS (%): ssDNA recombination compared to WT (GB2005 E. coli cells [1]; listed as E256A): 13 to 101%; DS (%): dsDNA recombination compared to WT (GB2005 E. coli cells [2]; listed as E256A): 55–106%
11 | B11 | 58 | 71 | SS (%): ssDNA recombination compared to WT (GB2005 E. coli cells [1]; listed as R229A): 13 to 101%; DS (%): dsDNA recombination compared to WT (GB2005 E. coli cells [2]; listed as R229A): 55–106%
12 | B12 | 101 | 85 | dsDNA relative to ssDNA recombination [3]: decreased dsDNA more than ssDNA recombination; SS (%): ssDNA recombination compared to WT (GB2005 E. coli cells [1]; listed as Q252A): 13 to 101%; DS (%): dsDNA recombination compared to WT (GB2005 E. coli cells [2]; listed as Q252A): 55–106%
13 | B13 | – | 106 | SS (%): ssDNA recombination compared to WT (GB2005 E. coli cells [1]; listed as Q226A): 13 to 101%; DS (%): dsDNA recombination compared to WT (GB2005 E. coli cells [2]; listed as Q226A): 55–106%
14 | B14 | – | – | dsDNA relative to ssDNA recombination [3]: disrupted dsDNA and ssDNA equally; interaction with λ Exo (λ Exo): weakened (but did not abolish) the interaction with λ Exo
15 | B15 | 2.5 | 0.20 | –
16 | B16 | 0.68 | 0.11 | DS (%): dsDNA recombination compared to WT (GB2005 E. coli cells [2]; listed as L223D): 0–0.7%
17 | B17 | – | – | interaction with λ Exo (λ Exo; Ni-spin pull down): no interaction
